This is an account of results in article PMC5389570.

The target of data set [1] is T1, RPA heterotrimer (RPA70/RPA32/RPA14) (Homo sapiens, UniProt P27694;P15927;P35244 1-616;1-270;1-121). Kind of data set: EMSA. Background: A gel shift assay detects complexes by their altered migration in electrophoresis.
Data set [2] has as its target T1, RPA heterotrimer (RPA70/RPA32/RPA14). Kind of data set: SPR. (In general: SPR reads the build-up and loss of mass on a sensor chip optically.)
The target is the same in data set [3]. Kind of data set: SPR. The source holds these as a separate data set.
Another data set has as its target T2, Cdc45 (Homo sapiens, UniProt O75419 1-566).
T2 sequence: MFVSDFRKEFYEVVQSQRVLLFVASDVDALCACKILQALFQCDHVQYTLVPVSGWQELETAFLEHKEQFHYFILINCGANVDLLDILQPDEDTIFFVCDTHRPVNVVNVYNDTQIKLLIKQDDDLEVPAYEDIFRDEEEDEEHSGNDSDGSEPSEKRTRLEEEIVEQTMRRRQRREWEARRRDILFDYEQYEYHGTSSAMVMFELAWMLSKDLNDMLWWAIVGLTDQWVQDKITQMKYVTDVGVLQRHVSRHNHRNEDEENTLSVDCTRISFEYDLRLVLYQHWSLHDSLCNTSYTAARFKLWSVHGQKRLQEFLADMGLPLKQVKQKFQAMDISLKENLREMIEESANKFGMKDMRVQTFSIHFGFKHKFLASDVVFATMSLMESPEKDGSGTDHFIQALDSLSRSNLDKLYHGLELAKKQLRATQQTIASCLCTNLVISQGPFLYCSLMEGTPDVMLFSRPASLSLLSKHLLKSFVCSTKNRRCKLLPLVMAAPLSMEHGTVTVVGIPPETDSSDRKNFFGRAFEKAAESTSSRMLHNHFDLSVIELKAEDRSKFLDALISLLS
Nature of the data set: EMSA.

A further data set concerns the target SSB (Escherichia coli, UniProt P0AGE0 1-178). Nature of the data set: EMSA.
In data set [4] the target is T1, RPA heterotrimer (RPA70/RPA32/RPA14). Nature of the data set: EMSA. The source holds these as a separate data set.

By Kd is commonly meant the concentration at which binding is half-saturated. Lower therefore signals higher affinity.

Read-outs that look alike come from different tables or passages of the source.

T1 sequence (P27694 whole entry, chain 1 of 3): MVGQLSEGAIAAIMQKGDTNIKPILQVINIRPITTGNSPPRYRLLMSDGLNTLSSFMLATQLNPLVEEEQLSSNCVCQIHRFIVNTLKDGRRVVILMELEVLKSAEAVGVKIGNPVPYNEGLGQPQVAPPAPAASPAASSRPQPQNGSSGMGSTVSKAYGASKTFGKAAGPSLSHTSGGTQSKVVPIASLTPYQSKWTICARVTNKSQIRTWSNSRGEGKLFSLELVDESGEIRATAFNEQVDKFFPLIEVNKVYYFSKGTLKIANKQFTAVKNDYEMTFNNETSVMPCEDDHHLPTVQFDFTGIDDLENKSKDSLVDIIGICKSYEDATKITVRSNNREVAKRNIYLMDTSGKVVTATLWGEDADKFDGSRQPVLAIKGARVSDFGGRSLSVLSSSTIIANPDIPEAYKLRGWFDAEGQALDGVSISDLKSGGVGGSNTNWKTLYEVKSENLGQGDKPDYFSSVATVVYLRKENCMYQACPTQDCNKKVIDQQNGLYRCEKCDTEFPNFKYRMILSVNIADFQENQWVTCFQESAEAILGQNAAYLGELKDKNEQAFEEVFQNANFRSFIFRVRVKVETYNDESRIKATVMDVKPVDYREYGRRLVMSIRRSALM
T1 sequence (P15927 whole entry, chain 2 of 3): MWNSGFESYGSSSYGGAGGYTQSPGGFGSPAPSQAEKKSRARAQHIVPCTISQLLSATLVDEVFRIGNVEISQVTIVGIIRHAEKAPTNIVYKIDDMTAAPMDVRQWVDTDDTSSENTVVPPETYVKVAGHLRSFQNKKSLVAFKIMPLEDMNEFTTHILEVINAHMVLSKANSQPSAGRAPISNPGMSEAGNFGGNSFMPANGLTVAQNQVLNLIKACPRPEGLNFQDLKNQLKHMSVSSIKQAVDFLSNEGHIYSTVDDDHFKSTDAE
T1 sequence (P35244 whole entry, chain 3 of 3): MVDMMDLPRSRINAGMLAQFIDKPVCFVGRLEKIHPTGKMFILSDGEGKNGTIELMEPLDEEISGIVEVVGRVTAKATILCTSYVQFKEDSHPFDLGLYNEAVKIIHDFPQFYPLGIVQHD
Chain of SSB (P0AGE0 whole entry): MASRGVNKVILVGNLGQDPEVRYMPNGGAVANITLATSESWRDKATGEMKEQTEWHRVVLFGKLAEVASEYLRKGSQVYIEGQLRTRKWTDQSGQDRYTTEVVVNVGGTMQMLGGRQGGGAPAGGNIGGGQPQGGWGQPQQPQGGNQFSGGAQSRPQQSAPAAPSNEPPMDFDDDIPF

B1: M5 (67-mer; called 65-mer in text) (ssDNA)
DNA: GTACCCGGGGATCCTCTAGAGTCGACCTGCAGGCATGCAAGCTTGGCACTGGCCGTCGTTTTACAAC
Molecule B1 gave a binding signal in data set [1] of roughly 4 fold vs RPA alone.

GGCTGGCATG (ssDNA) [M10-biotin (10-mer)]: the Kd came to 44.1 ± 4.7 nM in data set [2] and 112 ± 14 nM in data set [3].

As for GCTTGCATGCCTGCAGGCCAGCCTCAATCTCATC (ssDNA) [M2 (34-mer)], the binding result in the data set with Cdc45 is “no binding”; with SSB it was “binds”. This molecule also had a binding signal in data set [4] greater than 5 fold vs RPA alone.

As for GCTTGCATGCCTGCAGGCCAGCCTCAATCTCATC (ssDNA) [M2-biotin (34-mer)], binding in data set [2] was characterised by a dissociation constant (Kd) of 1.53 ± 1.3 nM.
